The results in this text go back to publication PMC4663164 (The Biochemical journal, 2015).

Series [1] addresses CK1-phosphorylated HMR-1^1108–1223 (polyhistidine-tagged) (C. elegans). The series can be described thus: liposome co-flotation.
Series [2] concerns the target HMR-1^S1212E (polyhistidine-tagged HMR-1^1108–1223) (C. elegans). The series can be described thus: liposome co-flotation.
Series [3] deals with HMR-1^S1212E,T1215E,S1218E (polyhistidine-tagged HMR-1^1108–1223) (C. elegans). Briefly: liposome co-flotation.
Series [4] has as its target HMR-1^T1215E,S1218E (polyhistidine-tagged HMR-1^1108–1223) (C. elegans). The series can be described thus: liposome co-flotation.
The series “SEC-MALS” deals with the molecule itself. The series can be described thus: SEC-MALS.

As for “HMP-1/HMP-2 complex (untagged, purified) (from UniProt P90947 1-927; O44326 1-678)”, in series [1], the fold enhancement in HMP-1/HMP-2 recovery against unphosphorylated HMR-1 worked out at 6 fold. Further, in series [2], the fold increase in HMP-1/HMP-2 recovery against unmodified HMR-1^1108–1223 worked out at 1.8 fold. Besides, in series [3], the fold increase in HMP-1/HMP-2 association against unmodified HMR-1^1108–1223 was 2.2 fold. In series [4], this molecule displayed a fold increase in HMP-1/HMP-2 binding against unmodified HMR-1^1108–1223 of 1.4 fold.

B1: recombinant full-length HMP-2 (natural protein, C. elegans, UniProt O44326 1-678, looked up)
chain: MLLHSTNSYSIFTDHEVETRTSRIRSAMFPDWIPPTSAAEATNSTTSIVEMMQMPTQQLKQSVMDLLTYEGSNDMSGLSLPDLVKLMCDHDESVVARAVHRAYMLSREDPNFFNAPGFDHRSFVEALMAASKSSNVNVRRNAIGALSHMSEQRGGPLLIFRSGGLAEIIRMLYDSLESVVHYAVTTLRNLLMHVSDSRAQARALNAVEALTPHLHKTNPKLLAQVADGLYFLLIDDAPSKITFLSLLGPQILVSILREYSDHRKLIYTVVRCIRSLSVCPSNKPALISLGCLPALYVELCTAKDERSQTAILVAMRNLSDSATNEENLTQLIIKLLEIIRVANDGMTACACGTLSNLTCNNTRNKQTVCSHGGIDALVTAIRRLPEVEEVTEPALCALRHCTARHSLAEEAQSELRFCQAFPVILDQLETLRTPVIKAALGVIRNSALLQTNLIELTQEQTANGHTAVSLTMDILRRAITAIEENPDIAVDGVPMWGVIEGAVSALHQLANHPAVAAACCDDIGQVGNPECPPFLDLLHRLLAHPRLGSMDDEVLEREILGLLYQLSKRPDGARAVESTGVSALLMESRGSQYKSVVTYANGVLSNLKRGDSAAIMNMSNSYDYEMSGSAADWQRDGLERELFAEMYPTNDGGHSESINMALNNSQMRPNHNWYDTDL
As to B1, the “stoichiometry N” value in “SEC-MALS” worked out at 2.
